Experimental data from US20100129369A1 (Eli Lilly, published 2010).
Residue numbers refer to the chain shown, from its start. Each block holds one binder with its values, some of them ahead of it.

What was measured:
[1] = biological target: T1, human c-Met ECD-Fc-Flis (human); assay: HGF-blocking ELISA: HGF signal on coated c-Met ECD-Fc-Flis; Ab 0.48 ng/mL
T1 construct: c-Met ECD fused to Fc with flag- and His-tag at the C-terminus; also called human c-Met extracellular domain (ECD)-Fc-Flis fusion; human c-Met-Flis-Fc ECD
T1 sequence (chain, as listed by the source): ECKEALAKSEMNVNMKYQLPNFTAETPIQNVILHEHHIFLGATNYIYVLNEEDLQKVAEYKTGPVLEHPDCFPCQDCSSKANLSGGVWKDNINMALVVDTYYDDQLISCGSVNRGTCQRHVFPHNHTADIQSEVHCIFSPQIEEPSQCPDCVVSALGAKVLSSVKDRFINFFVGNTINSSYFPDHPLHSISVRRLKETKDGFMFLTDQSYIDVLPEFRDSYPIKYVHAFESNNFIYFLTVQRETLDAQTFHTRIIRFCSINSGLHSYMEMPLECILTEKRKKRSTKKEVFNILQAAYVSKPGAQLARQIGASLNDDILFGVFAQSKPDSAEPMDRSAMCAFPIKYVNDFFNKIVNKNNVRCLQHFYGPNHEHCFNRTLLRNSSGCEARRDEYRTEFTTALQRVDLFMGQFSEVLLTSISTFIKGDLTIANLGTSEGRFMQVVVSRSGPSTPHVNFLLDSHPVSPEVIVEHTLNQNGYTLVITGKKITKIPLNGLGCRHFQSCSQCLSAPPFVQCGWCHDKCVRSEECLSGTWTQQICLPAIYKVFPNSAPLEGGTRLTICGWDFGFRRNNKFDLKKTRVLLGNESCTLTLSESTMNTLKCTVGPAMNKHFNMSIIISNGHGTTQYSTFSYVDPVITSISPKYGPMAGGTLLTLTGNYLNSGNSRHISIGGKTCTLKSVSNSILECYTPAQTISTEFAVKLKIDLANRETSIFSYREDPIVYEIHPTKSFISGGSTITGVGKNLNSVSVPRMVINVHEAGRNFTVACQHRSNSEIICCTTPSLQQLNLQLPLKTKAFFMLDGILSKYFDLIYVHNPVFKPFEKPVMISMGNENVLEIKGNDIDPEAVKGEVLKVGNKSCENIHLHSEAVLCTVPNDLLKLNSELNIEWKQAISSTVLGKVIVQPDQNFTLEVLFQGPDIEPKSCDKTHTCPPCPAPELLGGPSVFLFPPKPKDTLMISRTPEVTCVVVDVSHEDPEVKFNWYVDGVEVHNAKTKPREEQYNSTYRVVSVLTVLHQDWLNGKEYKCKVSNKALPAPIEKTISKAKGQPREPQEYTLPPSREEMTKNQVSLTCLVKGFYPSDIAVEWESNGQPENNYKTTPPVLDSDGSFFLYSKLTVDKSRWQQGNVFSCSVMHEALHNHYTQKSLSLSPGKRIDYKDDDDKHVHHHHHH
Description: (§1) Wells of 96-well EIA/RIA high binding plates (Costar, #2592) are coated with 100 μL of human c-Met ECD-Fc-Flis (SEQ ID NO:72) (2 μg/mL) in Dulbecco's phosphate buffered saline (DPBS) overnight at room temperature; washed four times with wash buffer (Tris-buffered saline, pH 8.0, with 0.05% (v/v) polysorbate 20 (TWEEN®-20) (TBS-T) (BioFX Labs, # WSHW-1000-01) in a plate washer; blocked by adding 300 μL of blocking buffer (TBS-T plus 1% (w/v) bovine serum albumin (BSA) (Jackson Immuno, #001-000-162); and incubating for 60 min. at 37° C. Blocking buffer is then removed from the wells and 50 μL of antibodies in blocking buffer at final concentrations as indicated in Table 7 are added into each well, respectively. […] The plates with c-Met antibodies are incubated for 90 min. at 37° C. […] The wells are then washed four times with TBS-T in a plate washer. […] The plates are incubated for 90 min. at room temperature. The wells are again washed four times with TBS-T in a plate washer. 100 μL of a 1:200 dilution of streptavidin-horseradish peroxidase (HRP) (R&D Systems, DY998) in blocking buffer are added to each well. The plates are incubated for 30 min. at room temperature. The wells are washed four times with TBS-T in a plate washer. 100 μL/well of substrate solution (BioFx, #TMBW-1000-01) are then added, and the plates are incubated for 10 min. at room temperature. To stop the reaction, 100 μL/well of stop solution (BioFx, # LSTP-1000-01) are added. The samples are read at a wavelength of 450-570 nm on a microplate reader (Spectra, MAX 190) and no background is subtracted.

[2] = biological target: T1, human c-Met ECD-Fc-Flis; assay: HGF-blocking ELISA: HGF signal on coated c-Met ECD-Fc-Flis; Ab 1.91 ng/mL
Description: as §1

[3] = biological target: T1, human c-Met ECD-Fc-Flis; assay: HGF-blocking ELISA: HGF signal on coated c-Met ECD-Fc-Flis; Ab 7.63 ng/mL
Description: as §1

[4] = biological target: T1, human c-Met ECD-Fc-Flis; assay: HGF-blocking ELISA: HGF signal on coated c-Met ECD-Fc-Flis; Ab 30.52 ng/mL
Description: as §1

[5] = biological target: T1, human c-Met ECD-Fc-Flis; assay: HGF-blocking ELISA: HGF signal on coated c-Met ECD-Fc-Flis; Ab 122.07 ng/mL
Description: as §1

[6] = biological target: T1, human c-Met ECD-Fc-Flis; assay: HGF-blocking ELISA: HGF signal on coated c-Met ECD-Fc-Flis; Ab 488.28 ng/mL
Description: as §1

[7] = biological target: T1, human c-Met ECD-Fc-Flis; assay: HGF-blocking ELISA: HGF signal on coated c-Met ECD-Fc-Flis; Ab 1953.13 ng/mL
Description: as §1

[8] = biological target: T1, human c-Met ECD-Fc-Flis; assay: HGF-blocking ELISA: HGF signal on coated c-Met ECD-Fc-Flis; Ab 7812.50 ng/mL
Description: as §1

[9] = biological target: T1, human c-Met ECD-Fc-Flis; assay: HGF-blocking ELISA: HGF signal on coated c-Met ECD-Fc-Flis; Ab 125000.00 ng/mL
Description: as §1

[10] = biological target: T1, human c-Met ECD-Fc-Flis; assay: HGF-blocking ELISA: HGF signal on coated c-Met ECD-Fc-Flis; Ab 0.00 ng/mL (HGF only)
Description: as §1

[11] = biological target: T2, human c-Met (human, UniProt P08581 25-1390); assay: cell-based or functional assay
T2 sequence (P08581 25-1390): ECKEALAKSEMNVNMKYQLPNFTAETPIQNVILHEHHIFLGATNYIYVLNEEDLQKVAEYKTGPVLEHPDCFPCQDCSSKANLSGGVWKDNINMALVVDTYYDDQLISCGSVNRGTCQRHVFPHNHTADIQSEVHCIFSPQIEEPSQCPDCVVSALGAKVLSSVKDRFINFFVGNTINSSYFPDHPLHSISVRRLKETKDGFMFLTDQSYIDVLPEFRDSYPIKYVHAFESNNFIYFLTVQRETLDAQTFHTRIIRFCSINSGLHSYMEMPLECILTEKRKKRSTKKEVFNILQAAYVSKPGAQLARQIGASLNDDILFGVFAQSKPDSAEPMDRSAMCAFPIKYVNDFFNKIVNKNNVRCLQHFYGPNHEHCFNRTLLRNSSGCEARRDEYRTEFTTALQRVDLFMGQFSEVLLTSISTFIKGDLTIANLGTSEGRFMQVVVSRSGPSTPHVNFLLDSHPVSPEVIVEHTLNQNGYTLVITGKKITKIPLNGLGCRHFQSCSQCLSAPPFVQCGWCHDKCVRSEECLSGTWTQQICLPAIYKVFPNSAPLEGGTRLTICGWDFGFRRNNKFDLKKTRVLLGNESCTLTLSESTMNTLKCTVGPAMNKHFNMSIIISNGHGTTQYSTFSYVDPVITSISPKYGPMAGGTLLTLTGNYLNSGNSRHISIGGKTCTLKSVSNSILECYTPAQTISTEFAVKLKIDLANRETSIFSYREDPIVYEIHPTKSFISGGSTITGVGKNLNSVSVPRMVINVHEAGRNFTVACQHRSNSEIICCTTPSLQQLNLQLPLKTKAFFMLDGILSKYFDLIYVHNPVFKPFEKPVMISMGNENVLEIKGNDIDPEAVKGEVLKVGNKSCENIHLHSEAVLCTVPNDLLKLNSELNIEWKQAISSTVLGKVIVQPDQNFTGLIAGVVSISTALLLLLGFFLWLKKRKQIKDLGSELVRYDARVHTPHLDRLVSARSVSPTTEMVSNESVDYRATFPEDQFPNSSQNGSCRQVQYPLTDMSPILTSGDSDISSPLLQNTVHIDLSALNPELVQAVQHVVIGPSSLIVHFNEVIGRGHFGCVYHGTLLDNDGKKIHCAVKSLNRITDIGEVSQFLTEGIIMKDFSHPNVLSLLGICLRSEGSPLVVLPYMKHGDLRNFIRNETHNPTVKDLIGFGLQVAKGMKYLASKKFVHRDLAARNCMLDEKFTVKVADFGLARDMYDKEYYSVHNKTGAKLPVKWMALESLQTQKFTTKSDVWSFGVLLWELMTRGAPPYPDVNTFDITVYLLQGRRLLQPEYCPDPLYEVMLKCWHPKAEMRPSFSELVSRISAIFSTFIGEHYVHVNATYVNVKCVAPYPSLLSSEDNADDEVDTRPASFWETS

[12] = biological target: T2, human c-Met; assay: cell-based or functional assay; remark: listed apart in the source
[13] = biological target: T2, human c-Met; assay: cell-based or functional assay; remark: listed apart in the source
[14] = biological target: T1, human c-Met ECD-Fc-Flis; assay: HGF-blocking ELISA: HGF signal on coated c-Met ECD-Fc-Flis; Ab 31250.00 ng/mL
Description: as §1

- AVG A450 nm [1]: 2.45 A450 nm
- AVG A450 nm [2]: 2.46 A450 nm
- AVG A450 nm [3]: 2.53 A450 nm
- AVG A450 nm [4]: 2.42 A450 nm
- AVG A450 nm [5]: 1.77 A450 nm
- AVG A450 nm [6]: 0.73 A450 nm
- AVG A450 nm [7]: 0.68 A450 nm
- AVG A450 nm [8]: 0.7 A450 nm
- AVG A450 nm [9]: 0.69 A450 nm
- AVG A450 nm [10]: 2.61 A450 nm
B1: C8-H241 (antibody, human IgG2, kappa, V domains shown)
VH: QVQLVQSGAEVKKPGASVKVSCKASGYTFTDYYMHWVRQAPGQGLEWMGRVNPNRRGTTYNQKFEGRVTMTTDTSTSTAYMELRSLRSDDTAVYYCARANWLDYWGQGTTVTVSS
VL: DIQMTQSPSSLSASVGDRVTITCSVSSSVSSIYLHWYQQKPGKAPKLLIYSTSNLASGVPSRFSGSGSGTDFTLTISSLQPEDFATYYCQVYSGYPLTFGGGTKVEIKR
notes: Named IgG4 kappa; also called Mab C8-H241

- % inhibition of HGF stimulated phospho-Met (ELISA, HCT116 cells), Ab 0.0032 µg/mL [11]: -11.3%
- % inhibition of HGF stimulated phospho-Met (ELISA, HCT116 cells), Ab 0.016 µg/mL [11]: -6.06%
- % inhibition of HGF stimulated phospho-Met (ELISA, HCT116 cells), Ab 0.08 µg/mL [11]: 7.79%
- % inhibition of HGF stimulated phospho-Met (ELISA, HCT116 cells), Ab 0.4 µg/mL [11]: 16.8%
- % inhibition of HGF stimulated phospho-Met (ELISA, HCT116 cells), Ab 2 µg/mL [11]: 27.9%
- % inhibition of HGF stimulated phospho-Met (ELISA, HCT116 cells), Ab 10 µg/mL [11]: 14.9%
- Mean Fluorescence (c-Met left on the surface of MKN45 cells, FACS), Ab 5.00 ug/mL [12]: 67.9
- AVG CPM, 3H-thymidine incorporation in MKN45 cells, Ab 0.0 ng/mL (no antibody) [13]: 48700 CPM
- AVG CPM, 3H-thymidine incorporation in MKN45 cells, Ab 0.1 ng/mL [13]: 51700 CPM
- AVG CPM, 3H-thymidine incorporation in MKN45 cells, Ab 0.4 ng/mL [13]: 53400 CPM
- AVG CPM, 3H-thymidine incorporation in MKN45 cells, Ab 2.6 ng/mL [13]: 54600 CPM
- AVG CPM, 3H-thymidine incorporation in MKN45 cells, Ab 15.4 ng/mL [13]: 44800 CPM
- AVG CPM, 3H-thymidine incorporation in MKN45 cells, Ab 92.6 ng/mL [13]: 23000 CPM
- AVG CPM, 3H-thymidine incorporation in MKN45 cells, Ab 555.6 ng/mL [13]: 18300 CPM
- AVG CPM, 3H-thymidine incorporation in MKN45 cells, Ab 3333.3 ng/mL [13]: 18200 CPM
- AVG CPM, 3H-thymidine incorporation in MKN45 cells, Ab 20000.0 ng/mL [13]: 16400 CPM
- AVG A450 nm [1]: 2.56 A450 nm
- AVG A450 nm [2]: 2.59 A450 nm
- AVG A450 nm [3]: 2.64 A450 nm
- AVG A450 nm [4]: 2.42 A450 nm
- AVG A450 nm [5]: 2 A450 nm
- AVG A450 nm [6]: 1.33 A450 nm
- AVG A450 nm [7]: 1.08 A450 nm
- AVG A450 nm [8]: 0.95 A450 nm
- AVG A450 nm [14]: 0.98 A450 nm
- AVG A450 nm [9]: 1.32 A450 nm
- AVG A450 nm [10]: 2.61 A450 nm
B2: C8-6 (antibody, human IgG2, kappa, V domains shown)
VH: B1 VH with R56G, A99T
VL: B1 VL with Q90I, V91Q
notes: Named IgG4 kappa; also called C8-6 IgG4
